Experimental data taken from ChEMBL document CHEMBL3508693.

Key:
Format in all cases: ADME, microsomes
[1] = substrate: COCCCOc1cc(C[C@@H](C[C@H](N)[C@@H](O)C[C@H](C(=O)NCC(C)(C)C(N)=O)C(C)C)C(C)C)ccc1OC; assay: Enzyme kinetics constant (Km value) for CYP4A11 was determined in human liver microsome incubated with [14C]SPP100 hemifumarate
[2] = substrate: COCCCOc1cc(C[C@@H](C[C@H](N)[C@@H](O)C[C@H](C(=O)NCC(C)(C)C(N)=O)C(C)C)C(C)C)ccc1OC; assay: Enzyme kinetics constant (Km value) for CYP2J2 was determined in human liver microsome incubated with [14C]SPP100 hemifumarate
[3] = substrate: COCCCOc1cc(C[C@@H](C[C@H](N)[C@@H](O)C[C@H](C(=O)NCC(C)(C)C(N)=O)C(C)C)C(C)C)ccc1OC; assay: Enzyme kinetics constant (Km value) for CYP4F2 was determined in human liver microsome incubated with [14C]SPP100 hemifumarate
[4] = substrate: COCCCOc1cc(C[C@@H](C[C@H](N)[C@@H](O)C[C@H](C(=O)NCC(C)(C)C(N)=O)C(C)C)C(C)C)ccc1OC; assay: Enzyme kinetics constant (Km value) for CYP3A5 was determined in human liver microsome incubated with [14C]SPP100 hemifumarate
[5] = substrate: COCCCOc1cc(C[C@@H](C[C@H](N)[C@@H](O)C[C@H](C(=O)NCC(C)(C)C(N)=O)C(C)C)C(C)C)ccc1OC; assay: Enzyme kinetics constant (Km value) for CYP2D6 was determined in human liver microsome incubated with [14C]SPP100 hemifumarate
[6] = substrate: COCCCOc1cc(C[C@@H](C[C@H](N)[C@@H](O)C[C@H](C(=O)NCC(C)(C)C(N)=O)C(C)C)C(C)C)ccc1OC; assay: Enzyme kinetics constant (Km value) for CYP4F3B was determined in human liver microsome incubated with [14C]SPP100 hemifumarate
[7] = substrate: COCCCOc1cc(C[C@@H](C[C@H](N)[C@@H](O)C[C@H](C(=O)NCC(C)(C)C(N)=O)C(C)C)C(C)C)ccc1OC; assay: Enzyme kinetics constant (Km value) for CYP2E1 was determined in human liver microsome incubated with [14C]SPP100 hemifumarate
[8] = substrate: COCCCOc1cc(C[C@@H](C[C@H](N)[C@@H](O)C[C@H](C(=O)NCC(C)(C)C(N)=O)C(C)C)C(C)C)ccc1OC; assay: Enzyme kinetics constant (Km value) for CYP3A7 was determined in human liver microsome incubated with [14C]SPP100 hemifumarate

B1: Cytochrome P450 4A11 (Homo sapiens) (protein)
chain: MSVSVLSPSRLLGDVSGILQAASLLILLLLLIKAVQLYLHRQWLLKALQQFPCPPSHWLFGHIQELQQDQELQRIQKWVETFPSACPHWLWGGKVRVQLYDPDYMKVILGRSDPKSHGSYRFLAPWIGYGLLLLNGQTWFQHRRMLTPAFHYDILKPYVGLMADSVRVMLDKWEELLGQDSPLEVFQHVSLMTLDTIMKCAFSHQGSIQVDRNSQSYIQAISDLNNLVFSRVRNAFHQNDTIYSLTSAGRWTHRACQLAHQHTDQVIQLRKAQLQKEGELEKIKRKRHLDFLDILLLAKMENGSILSDKDLRAEVDTFMFEGHDTTASGISWILYALATHPKHQERCREEIHSLLGDGASITWNHLDQMPYTTMCIKEALRLYPPVPGIGRELSTPVTFPDGRSLPKGIMVLLSIYGLHHNPKVWPNPEVFDPFRFAPGSAQHSHAFLPFSGGSRNCIGKQFAMNELKVATALTLLRFELLPDPTRIPIPIARLVLKSKNGIHLRLRRLPNPCEDKDQL
[1]
  Km: 3.1 µM
  Vmax: 1.55e-05 µmol/min/mg

B2: Cytochrome P450 2J2 (Homo sapiens) (protein)
chain: MLAAMGSLAAALWAVVHPRTLLLGTVAFLLAADFLKRRRPKNYPPGPWRLPFLGNFFLVDFEQSHLEVQLFVKKYGNLFSLELGDISAVLITGLPLIKEALIHMDQNFGNRPVTPMREHIFKKNGLIMSSGQAWKEQRRFTLTALRNFGLGKKSLEERIQEEAQHLTEAIKEENGQPFDPHFKINNAVSNIICSITFGERFEYQDSWFQQLLKLLDEVTYLEASKTCQLYNVFPWIMKFLPGPHQTLFSNWKKLKLFVSHMIDKHRKDWNPAETRDFIDAYLKEMSKHTGNPTSSFHEENLICSTLDLFFAGTETTSTTLRWALLYMALYPEIQEKVQAEIDRVIGQGQQPSTAARESMPYTNAVIHEVQRMGNIIPLNVPREVTVDTTLAGYHLPKGTMILTNLTALHRDPTEWATPDTFNPDHFLENGQFKKREAFMPFSIGKRACLGEQLARTELFIFFTSLMQKFTFRPPNNEKLSLKFRMGITISPVSHRLCAVPQV
[2]
  Km: 67 µM
  Vmax: 0.000604 µmol/min/mg

B3: Cytochrome P450 4F2 (Homo sapiens) (protein)
chain: MSQLSLSWLGLWPVAASPWLLLLLVGASWLLAHVLAWTYAFYDNCRRLRCFPQPPRRNWFWGHQGMVNPTEEGMRVLTQLVATYPQGFKVWMGPISPLLSLCHPDIIRSVINASAAIAPKDKFFYSFLEPWLGDGLLLSAGDKWSRHRRMLTPAFHFNILKPYMKIFNESVNIMHAKWQLLASEGSACLDMFEHISLMTLDSLQKCVFSFDSHCQEKPSEYIAAILELSALVSKRHHEILLHIDFLYYLTPDGQRFRRACRLVHDFTDAVIQERRRTLPSQGVDDFLQAKAKSKTLDFIDVLLLSKDEDGKKLSDEDIRAEADTFMFEGHDTTASGLSWVLYHLAKHPEYQERCRQEVQELLKDREPKEIEWDDLAHLPFLTMCMKESLRLHPPVPVISRHVTQDIVLPDGRVIPKGIICLISVFGTHHNPAVWPDPEVYDPFRFDPENIKERSPLAFIPFSAGPRNCIGQTFAMAEMKVVLALTLLRFRVLPDHTEPRRKPELVLRAEGGLWLRVEPLS
[3]
  Km: 11.3 µM
  Vmax: 8.91e-05 µmol/min/mg

B4: Cytochrome P450 3A5 (Homo sapiens) (protein)
chain: MDLIPNLAVETWLLLAVSLVLLYLYGTRTHGLFKRLGIPGPTPLPLLGNVLSYRQGLWKFDTECYKKYGKMWGTYEGQLPVLAITDPDVIRTVLVKECYSVFTNRRSLGPVGFMKSAISLAEDEEWKRIRSLLSPTFTSGKLKEMFPIIAQYGDVLVRNLRREAEKGKPVTLKDIFGAYSMDVITGTSFGVNIDSLNNPQDPFVESTKKFLKFGFLDPLFLSIILFPFLTPVFEALNVSLFPKDTINFLSKSVNRMKKSRLNDKQKHRLDFLQLMIDSQNSKETESHKALSDLELAAQSIIFIFAGYETTSSVLSFTLYELATHPDVQQKLQKEIDAVLPNKAPPTYDAVVQMEYLDMVVNETLRLFPVAIRLERTCKKDVEINGVFIPKGSMVVIPTYALHHDPKYWTEPEEFRPERFSKKKDSIDPYIYTPFGTGPRNCIGMRFALMNMKLALIRVLQNFSFKPCKETQIPLKLDTQGLLQPEKPIVLKVDSRDGTLSGE
[4]
  Km: 28.7 µM
  Vmax: 0.00135 µmol/min/mg

B5: Cytochrome P450 2D6 (Homo sapiens) (protein)
chain: MGLEALVPLAVIVAIFLLLVDLMHRRQRWAARYPPGPLPLPGLGNLLHVDFQNTPYCFDQLRRRFGDVFSLQLAWTPVVVLNGLAAVREALVTHGEDTADRPPVPITQILGFGPRSQGVFLARYGPAWREQRRFSVSTLRNLGLGKKSLEQWVTEEAACLCAAFANHSGRPFRPNGLLDKAVSNVIASLTCGRRFEYDDPRFLRLLDLAQEGLKEESGFLREVLNAVPVLLHIPALAGKVLRFQKAFLTQLDELLTEHRMTWDPAQPPRDLTEAFLAEMEKAKGNPESSFNDENLRIVVADLFSAGMVTTSTTLAWGLLLMILHPDVQRRVQQEIDDVIGQVRRPEMGDQAHMPYTTAVIHEVQRFGDIVPLGVTHMTSRDIEVQGFRIPKGTTLITNLSSVLKDEAVWEKPFRFHPEHFLDAQGHFVKPEAFLPFSAGRRACLGEPLARMELFLFFTSLLQHFSFSVPTGQPRPSHHGVFAFLVSPSPYELCAVPR
[5]
  Km: 73.6 µM
  Vmax: 0.00548 µmol/min/mg

B6: Cytochrome P450 4F3 (Homo sapiens) (protein)
chain: MPQLSLSSLGLWPMAASPWLLLLLVGASWLLARILAWTYTFYDNCCRLRCFPQPPKRNWFLGHLGLIHSSEEGLLYTQSLACTFGDMCCWWVGPWHAIVRIFHPTYIKPVLFAPAAIVPKDKVFYSFLKPWLGDGLLLSAGEKWSRHRRMLTPAFHFNILKPYMKIFNESVNIMHAKWQLLASEGSARLDMFEHISLMTLDSLQKCVFSFDSHCQEKPSEYIAAILELSALVTKRHQQILLYIDFLYYLTPDGQRFRRACRLVHDFTDAVIQERRRTLPSQGVDDFLQAKAKSKTLDFIDVLLLSKDEDGKKLSDEDIRAEADTFMFEGHDTTASGLSWVLYHLAKHPEYQERCRQEVQELLKDREPKEIEWDDLAQLPFLTMCIKESLRLHPPVPAVSRCCTQDIVLPDGRVIPKGIICLISVFGTHHNPAVWPDPEVYDPFRFDPKNIKERSPLAFIPFSAGPRNCIGQAFAMAEMKVVLGLTLLRFRVLPDHTEPRRKPELVLRAEGGLWLRVEPLS
[6]
  Km: 5 µM
  Vmax: 0.000121 µmol/min/mg

B7: Cytochrome P450 2E1 (Homo sapiens) (protein)
chain: MSALGVTVALLVWAAFLLLVSMWRQVHSSWNLPPGPFPLPIIGNLFQLELKNIPKSFTRLAQRFGPVFTLYVGSQRMVVMHGYKAVKEALLDYKDEFSGRGDLPAFHAHRDRGIIFNNGPTWKDIRRFSLTTLRNYGMGKQGNESRIQREAHFLLEALRKTQGQPFDPTFLIGCAPCNVIADILFRKHFDYNDEKFLRLMYLFNENFHLLSTPWLQLYNNFPSFLHYLPGSHRKVIKNVAEVKEYVSERVKEHHQSLDPNCPRDLTDCLLVEMEKEKHSAERLYTMDGITVTVADLFFAGTETTSTTLRYGLLILMKYPEIEEKLHEEIDRVIGPSRIPAIKDRQEMPYMDAVVHEIQRFITLVPSNLPHEATRDTIFRGYLIPKGTVVVPTLDSVLYDNQEFPDPEKFKPEHFLNENGKFKYSDYFKPFSTGKRVCAGEGLARMELFLLLCAILQHFNLKPLVDPKDIDLSPIHIGFGCIPPRYKLCVIPRS
[7]
  Km: 31.9 µM
  Vmax: 4.62e-05 µmol/min/mg

B8: Cytochrome P450 3A7 (Homo sapiens) (protein)
chain: MDLIPNLAVETWLLLAVSLILLYLYGTRTHGLFKKLGIPGPTPLPFLGNALSFRKGYWTFDMECYKKYRKVWGIYDCQQPMLAITDPDMIKTVLVKECYSVFTNRRPFGPVGFMKNAISIAEDEEWKRIRSLLSPTFTSGKLKEMVPIIAQYGDVLVRNLRREAETGKPVTLKHVFGAYSMDVITSTSFGVSIDSLNNPQDPFVENTKKLLRFNPLDPFVLSIKVFPFLTPILEALNITVFPRKVISFLTKSVKQIKEGRLKETQKHRVDFLQLMIDSQNSKDSETHKALSDLELMAQSIIFIFAGYETTSSVLSFIIYELATHPDVQQKVQKEIDTVLPNKAPPTYDTVLQLEYLDMVVNETLRLFPVAMRLERVCKKDVEINGMFIPKGVVVMIPSYVLHHDPKYWTEPEKFLPERFSKKNKDNIDPYIYTPFGSGPRNCIGMRFALVNMKLALVRVLQNFSFKPCKETQIPLKLRFGGLLLTEKPIVLKAESRDETVSGA
[8]
  Km: 32.6 µM
  Vmax: 0.000113 µmol/min/mg
